{
  "source": "patent US12576029B2",
  "about": "“Noncompetitive receptor-targeted vaccine delivery to plasmacytoid dendritic cells” (Washington University, priority 2022, dated 2026)",
  "test_system": "pDC",
  "experiment": "pDC fraction after FLT3L injection in mice",
  "type": "in vivo",
  "settings": "after 7 days",
  "from_the_text": "Inbred mice and distribution of dendritic cells: BL/6, SV129 and […] inbred mouse lines were obtained from Jackson Laboratory (Bar Harbor, ME) The distribution of dendritic cells were examined using flow cytometry by using fluorochrome-conjugated monoclonal antibodies. Briefly, cells from spleen and liver were isolated from the mice and stained using fluorophore labeled antibodies. Cells were then fixed using 4% paraformaldehyde and analyzed by flow cytometry.\nFurther, the amount of pDC fraction was found inducible with injection of FMS-like tyrosine kinase 3 ligand in mice after 7 days (FIG. 2A-2B). Incubation of bone marrow differentiation culture with mouse transferrin for 7 days enhanced CD71 expression and pDC fraction (FIG. 2C-2D).",
  "data": [
    {"molecule": "FMS-like tyrosine kinase 3 ligand: FMS-like tyrosine kinase 3 ligand injected in mice to induce pDC fraction (protein, UniProt P49771 27-235, looked up) Fms-related tyrosine kinase 3 …: TQDCSFQHSPISSDFAVKIRELSDYLLQDYPVTVASNLQDEELCGGLWRLVLAQRWMERLKTVAGSKMQGLLERVNTEIHFVTKCAFQPPPSCLRFVQTNISRLLQETSEQLVALKPWITRQNFSRCLELQCQPDSSTLPPPWSPRPLEATAPTAPQPPLLLLLLLPVGLLLLAAAWCLHWQRTRRRTPRPGEQVPPVPSPQDLLLVEH", "values": [
      {"measurement": "pDC fraction", "result": "inducible"},
      {"measurement": "pDC fraction", "setting": "listed as FLT3L", "result": "inducible upregulation"}
    ]}
  ]
}
